Switch fluorescence ratio data for 78 sequences are collected here from the supplement of paper PMC10126150.

This data set deals with ATP. The data set can be described thus: switch fluorescence ratio, 500 uM ATP over buffer (Cy3 cluster intensity, sum of 5 cycles each) (fold (ratio)); higher = stronger signal-on switching upon ATP binding; sequences stand for … in TCGTCGGCAGCGTCAGATGTGTATAAGAGACAGTTTTTTTTTTTTTTTTTTTTTTTTT…TC. Conditions: aptamer strand: ATP DNA aptamer (quencher-CACCTGGGGGAGTATTGCGGAGGAAGG + anchor), 100 nM annealed; ATP concentration: 500 uM. Summed up: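 Values give the fluorescence ratio for each switch-domain sequence, averaged from per-cluster ratios of summed target-cycle to summed buffer-cycle Cy3 intensity. The Cy3-labelled switching-strand clusters sat on a modified Illumina MiSeq flow-cell, were annealed to 100 nM quencher-labelled ATP aptamer, and were imaged in selection buffer, then after 15 min with 500 uM ATP at 22 °C. Five cycles ran with NaOH stripping and re-annealing between them, and clusters outside 100-1000 RFU were excluded.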

± gives the standard deviation of the averaged measurements.
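Note: ATP exposure 15 min at 22 °C before imaging.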

As for GGGTAGGGAC, the switch fluorescence ratio was 1.01 ± 0.026. Next, TTGGACCCAT: 1.02 ± 0.02; GTGGGAGGTG: 1 ± 0.046. The figure for GGGAAGCATT is 0.989 ± 0.023. Next, ACGACAGATG: 0.961 ± 0.046. As for TCGGAGTTTA, the switch fluorescence ratio stood at 1.04 ± 0.016. With GAGGGTTGGG, the switch fluorescence ratio was 1.06 ± 0.045. Next, AGTGTAGAGC: 0.975 ± 0.017; TGCGGGGTTA: 0.986 ± 0.024. As to GGGTTATTCT, the switch fluorescence ratio turned out to be 1.01 ± 0.049. With GGGCCCTAAT, the switch fluorescence ratio is 0.982 ± 0.03. Next, AAGTTTATCA: 1.003 ± 0.0032; TGAAGGGGAC: 0.998 ± 0.015. Consider GTAATGTGGG, for which the switch fluorescence ratio worked out at 0.972 ± 0.022.

For the sequence CGGGCGCTGG, the switch fluorescence ratio was determined as 0.995 ± 0.018. The figure for AACTGTTCTG is 1.01 ± 0.014; for TTAGTTACGG it is 0.999 ± 0.019. With CCGCCAGGTC, the switch fluorescence ratio was 2.55 ± 0.13. On to CTGTATTTGG, for which the switch fluorescence ratio came to 1 ± 0.012. Next, ATGAAAAATT: 1.01 ± 0.031. For GGATAGGGCG, the switch fluorescence ratio came to 0.946 ± 0.1. On to GCACGCGGGG, for which the switch fluorescence ratio is 1.009 ± 0.0015. The figure for CGAAAACGTG is 0.976 ± 0.012.

Take AGTGGCAGTG: the switch fluorescence ratio stood at 1 ± 0.022.

For TTTTTCTGCT, the switch fluorescence ratio turned out to be 0.9786 ± 0.0051. On to AAGGGGTGG, for which the switch fluorescence ratio was 1.02 ± 0.029. Next, ATGCATTTTT: 1.02 ± 0.043. The figure for TTTCGAGTTA is 1.03 ± 0.063.

Consider TCATATTATG, for which the switch fluorescence ratio is 1.02 ± 0.034. The figure for AAGAGTGGTG is 0.988 ± 0.015. In the case of GGGGACTTAT, the switch fluorescence ratio was 1.02 ± 0.017.

Consider CATAATAC, for which the switch fluorescence ratio was 1.82 ± 0.4. TTGATGGTAC: the switch fluorescence ratio came to 1.0774 ± 0.00051. Take TCAGGTTAGT: the switch fluorescence ratio amounted to 1.02 ± 0.022. As to CCCGGTTGAT, the switch fluorescence ratio was 1.047 ± 0.0074. Next, TTCGGCGACG: 1.0016 ± 0.00078; ATCTAGCGGA: 1.02 ± 0.022. For TTTCCGGGAC, the switch fluorescence ratio stood at 1.41 ± 0.066. In the case of AGGTATAAGC, the switch fluorescence ratio amounted to 0.994 ± 0.043. Consider GCAAGAACAG, for which the switch fluorescence ratio turned out to be 1.04 ± 0.036. Next, TGCTTAAGAT: 0.99 ± 0.023; GCCATCATGC: 0.97 ± 0.0073.

Consider GGATCTACCG, for which the switch fluorescence ratio is 1.01 ± 0.032. With CTGTTGGGAA, the switch fluorescence ratio was determined as 1.04 ± 0.091. Consider GGTGTTTAAT, for which the switch fluorescence ratio is 0.979 ± 0.016.

For the sequence AGGGGATTC, the switch fluorescence ratio turned out to be 1.002 ± 0.0075.

As to GGTTTTATGG, the switch fluorescence ratio turned out to be 0.988 ± 0.027. Consider CGCGGTATTA, for which the switch fluorescence ratio came to 1.02 ± 0.013. For TGCATGGGCT, the switch fluorescence ratio stood at 1.05 ± 0.12. AGGTGGTCTG: the switch fluorescence ratio came to 0.9885 ± 0.0047.

As to GGTGGTTTGG, the switch fluorescence ratio came to 1.023 ± 0.0045. ATATTGAGGG: the switch fluorescence ratio was determined as 1.01 ± 0.00033. The figure for TTTCGGACCT is 1.3458 ± 0.00061. On to ATATTCTTTT, for which the switch fluorescence ratio worked out at 1.03 ± 0.091.

On to ACGTTGCTGA, for which the switch fluorescence ratio amounted to 1.02 ± 0.028.

For GGTTAAACTT, the switch fluorescence ratio is 1.02 ± 0.012. On to ATGAGCGACG, for which the switch fluorescence ratio was 0.9921 ± 0.0088. The figure for TTTAACGTTT is 0.979 ± 0.0061; for TTCGGACTGC it is 1.06 ± 0.031; for AACCTCGTCT it is 1.07 ± 0.039. Regarding GTCGGCGGGG, the switch fluorescence ratio is 0.98048 ± 0.0006. Consider GGGGAAAACG, for which the switch fluorescence ratio came out at 0.989 ± 0.015. As to GGGGGGGAT, the switch fluorescence ratio was found to be 1.02 ± 0.025. Next, AATCGGCGGG: 0.975 ± 0.022; CGTGGGGGCG: 1.01 ± 0.03; CCATGGGTTC: 1.0016 ± 0.00068. Next, CCTATTGTAT: 1.02 ± 0.033; TTTACTTGTA: 1.01 ± 0.023; GAAAGTTAAG: 1.015 ± 0.0049. As to TTAAGGCATG, the switch fluorescence ratio turned out to be 0.997 ± 0.018. The figure for TTCTTGGGGG is 1.01 ± 0.029; for GGGATTCAAC it is 1.018 ± 0.0085; for TCGTTGATGT it is 1 ± 0.049. For TTAATGATGG, the switch fluorescence ratio amounted to 1.012 ± 0.0075.

As to ATCGGGAATG, the switch fluorescence ratio is 1.019 ± 0.0018. For the sequence AACTTTAGTA, the switch fluorescence ratio stood at 1 ± 0.016. Consider CGGGTTAAGT, for which the switch fluorescence ratio came out at 1.03 ± 0.11.

For TTCAGAAGGT, the switch fluorescence ratio turned out to be 1.01 ± 0.051.
